Columns and labels:
Assay in all cases: Biacore; eBiosc hIL23
1G8 = target: 1G8
3A11 = target: 3A11
3A10 = target: 3A10
3A7 = target: 3A7
3G9 = target: 3G9
3E1 = target: 3E1
3D4 = target: 3D4
4F3 = target: 4F3
3H5 = target: 3H5
3C7 = target: 3C7
124G2 = target: 124G2
123F1 = target: 123F1
119C3 = target: 119C3
121C7 = target: 121C7
12D2 = target: 12D2
119H1 = target: 119H1
81D1 = target: 81D1
119B3 = target: 119B3
119C9 = target: 119C9
124D2 = target: 124D2
12A11 = target: 12A11
124H5 = target: 124H5
124H2 = target: 124H2

koff (1G8): 0.00223 s⁻¹ | koff (3A11): 0.00513 s⁻¹ | koff (3A10): 0.00286 s⁻¹ | koff (3A7): 0.00507 s⁻¹ | koff (3G9): 0.00672 s⁻¹ | koff (3E1): 0.00866 s⁻¹ | koff (3D4): 0.0062 s⁻¹ | koff (4F3): 0.00208 s⁻¹ | koff (3H5): 0.00333 s⁻¹ | koff (3C7): 0.0102 s⁻¹ | koff (124G2): 9.28e-05 s⁻¹ | koff (123F1): 0.000377 s⁻¹ | koff (119C3): 0.0334 s⁻¹ | koff (121C7): 0.000112 s⁻¹ | koff (12D2): 0.000125 s⁻¹ | koff (119H1): 0.0106 s⁻¹ | koff (81D1): 0.0114 s⁻¹ | koff (119B3): 0.00015 s⁻¹ | koff (119C9): 0.0012 s⁻¹ | koff (124D2): 0.000103 s⁻¹ | koff (12A11): 0.000134 s⁻¹ | koff (124H5): 3.54e-05 s⁻¹ | koff (124H2): 5.88e-05 s⁻¹
B1: eBiosc hIL23 (ligand)
chain 1: RAVPGGSSPAWTQCQQLSQKLCTLAWSAHPLVGHMDLREEGDEETTNDVPHIQCGDGCDPQGLRDNSQFCLQRIHQGLIFYEKLLGSDIFTGEPSLLPDSPVGQLHASLLGLSQLLQPEGHHWETQQIPSLSPSQPWQRLLLRFKILRSLQAFVAVAARVFAHGAATLSP
chain 2: IWELKKDVYVVELDWYPDAPGEMVVLTCDTPEEDGITWTLDQSSEVLGSGKTLTIQVKEFGDAGQYTCHKGGEVLSHSLLLLHKKEDGIWSTDILKDQKEPKNKTFLRCEAKNYSGRFTCWWLTTISTDLTFSVKSSRGSSDPQGVTCGAATLSAERVRGDNKEYEYSVECQEDSACPAAEESLPIEVMVDAVHKLKYENYTSSFFIRDIIKPDPPKNLQLKPLKNSRQVEVSWEYPDTWSTPHSYFSLTFCVQVQGKSKREKKDRVFTDKTSATVICRKNASISVRAQDRYYSSSWSEWASVPCS
